Results on 1 substance are retold here after PMC3531475.

Assay [1] addresses T1, adiponectin receptor type 1 (AdipoR1) (human (endogenous in SH-SY5Y)) (UniProt Q96A54).
T1 sequence: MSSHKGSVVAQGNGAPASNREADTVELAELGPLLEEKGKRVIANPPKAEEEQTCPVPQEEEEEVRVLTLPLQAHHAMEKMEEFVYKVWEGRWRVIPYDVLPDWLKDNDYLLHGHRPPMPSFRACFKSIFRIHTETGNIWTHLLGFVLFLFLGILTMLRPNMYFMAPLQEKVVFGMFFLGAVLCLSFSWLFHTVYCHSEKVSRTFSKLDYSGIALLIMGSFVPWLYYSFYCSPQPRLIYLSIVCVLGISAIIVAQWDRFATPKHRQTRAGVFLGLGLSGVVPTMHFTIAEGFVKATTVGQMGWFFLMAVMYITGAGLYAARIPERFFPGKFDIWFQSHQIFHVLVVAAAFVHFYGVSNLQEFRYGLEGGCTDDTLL

In assay [2] the target is T2, adiponectin receptor type 2 (AdipoR2) (human (endogenous in SH-SY5Y)) (UniProt Q86V24).
T2 sequence: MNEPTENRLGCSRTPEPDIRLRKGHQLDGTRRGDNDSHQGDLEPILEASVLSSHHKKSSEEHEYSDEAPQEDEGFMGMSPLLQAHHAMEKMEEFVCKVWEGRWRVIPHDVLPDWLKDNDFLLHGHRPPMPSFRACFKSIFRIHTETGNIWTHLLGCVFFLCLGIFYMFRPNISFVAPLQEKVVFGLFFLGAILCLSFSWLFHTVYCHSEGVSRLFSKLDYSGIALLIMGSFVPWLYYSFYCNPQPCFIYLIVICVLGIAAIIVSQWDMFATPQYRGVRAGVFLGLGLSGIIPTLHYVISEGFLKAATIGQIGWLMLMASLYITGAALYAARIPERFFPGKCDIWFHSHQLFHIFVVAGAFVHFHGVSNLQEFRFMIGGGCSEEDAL

On to “Mouse recombinant adiponectin (from UniProt Q60994 18-247) (ligand)”, for which the cytotoxicity (LDH release, fold of untreated) of Sw-APP transfected SH-SY5Y cells under H2O2 (200-800 µM), with adiponectin 10 µg/ml for 2 hours beforehand; most marked at 400 µM H2O2 (fold cytotoxicity) in assay [1] and in assay [2] was 2.7 each time.
